Reference: PMC10450579 (2023)
“And” between values parts separate entries of the source, which are not always exact repeats. Equal values may be shown once.

B1: monobody Mb2 (designed binder)
chain: GSVSSVPTKLEVVAATPTSLLISWDAPAVTVVHYVITYGETGGNSPVQEFTVPGSKSTATISGLKPGVDYTITVYAIDFYWGSYSPISINYRT
B2: Aurora A kinase (AurA), residues 122 to 403 (domain or fragment)
chain: ESKKRQWALEDFEIGRPLGKGKFGNVYLAREKQSKFILALKVLFKAQLEKAGVEHQLRREVEIQSHLRHPNILRLYGYFHDATRVYLILEYAPLGTVYRELQKLSKFDEQRTATYITELANALSYCHSKRVIHRDIKPENLLLGSAGELKIADFGWSVHAPSSRRTTLCGTLDYLPPEMIEGRMHDEKVDLWSLGVLCYEFLVGKPPFEANTYQETYKRISRVEFTFPDFVTEGARDLISRLLKHNPSQRPMLREVLEHPWITANSSKPSNCQNKESASKQS

Columns and labels:
[1] = biological target: B2; assay: ITC
Mb3 [2] = assay: ITC; AurA preincubated with danusertib
Mb3 [3] = assay: ITC

Binder: B1
- Kd [1]: 889 nM and 1500 nM

Binder: B2
- Kd (Mb3 [2]): 69 nM
- Kd (Mb3 [3]): 180 nM
